Data from US6570069B1, “Nucleic acids encoding plant inhibitors of apoptosis and transgenic cells and plants expressing them” (priority 2000, dated 2003).
Entries after “also recorded” stand apart in the source; their conditions may differ.

How the values were obtained:
[1] = tested on: recombinant active caspase-9; assay: Enzyme inhibition assay with recombinant active caspase-9 and Ac-LEHD-AFC; format: biochemical, mammalian; details: Ac-LEHD-AFC substrate
Protocol: pGEX4T-1-SfIAP and pGEX4T-1 -CpIAP plasmids were introduced into E. coli strain BL21 (DE3) containing the plasmid pT-Trx. GST fusion proteins were obtained by induction with 0.05 mM IPTG at 25° C. for 8 hours, then purified using glutathione-Sepharose, essentially as described (Deveraux, Q., Welsh, K. & Reed, J. Methods of Enzymology in press). Caspases-3, and -7, containing C-terminal His6-tags, and caspase-8 containing an N-terminal His6-tag were purified as described previously (Stennicke, H. R. & Salvesen, G. S. (I1997) J. Biol. Chem. 272, 25719-25723; Stennicke, H., et al., (1998) J. Biol. Chem. 273, 27084-27090; Stennicke, H., et al., (1999) J. Biol. Chem. 274, 8359-8362). Caspase-9 lacking the CARD domain (ΔCARD-caspase-9) was constructed by truncating the cDNA and introducing a start codon substituting Val139. The resulting cDNA was subcloned into pET-23b and expressed in BL21 (DE3), yielding fully processed enzyme when cells were induced using 0.2 mM IPTG at OD600=0.6 for 4 hrs (Stennicke, H., Deveraux, Q., Humike, E., Reed, J., Dixit, V. & Salvesen, G. (1999) J. Biol. Chem. 274, 8359-8362). All expressed caspases were purified by Ni-chelation affinity-chromatography, as described (Stennicke, H., et al., (1999) J. Biol. Chem. 274, 8359-8362; Stennicke, H. R. & Salvesen, G. S. (1997) J. Biol. Chem. 272, 25719-25723; Stennicke, H., et al., (1998) supra). Concentrations of purified enzymes were determined from absorbance at 280 nm based on the molar absorption coefficients: caspase-3 (A280=26,000M−1 cm−1), caspase-7 (A280=24,500 M−1 cm−1), caspase-9 (A280=30,010M−1 cm−1).
(§1) Caspase activity was assayed by release of 7-amino-4-trifluoromethyl-coumarin (AFC) from Ac-DEVD or Ac-LEHD-containing synthetic peptides (Calbiochem) using continuous-reading instuments as described (Quan, L. T. et al., (1995) J. Biol. Chem. 270:10377-10379).
To directly examine the possibility that SfIAP and CpLAP inhibit caspase-9, enzyme inhibition assays were performed using bacteria-produced recombinant active caspase-9, recombinant-purified SfIAP and CpIAP, and Ac-LEHD-AFC as a caspase-9 substrate.

[2] = tested on: Fas-induced apoptosis in HEK293 cells; assay: Fas-induced apoptosis in HEK293 cells (co-transfection, DAPI nuclear morphology); format: cell-based, human; details: IAP plasmid co-transfected with Fas into HEK293 cells; % apoptosis 24-36 hours later
Protocol: (§2) HEK293 and 293T cells were maintained in DMEM (Irvine Scientific) supplemented with 10% fetal bovine serum, 1 mM L-glutamine and antibiotics. 293 cells (10^6) were co-transfected using Superfect with 0.1 μg Green Fluoresence Protein (GFP) marker plasmid pEGFP (Clontech), 0.25 ug of either pcDNA3-Bax or pcDNA3-Fas, and 1.5 μg of either pcDNA3myc-SfIAP or pcDNA3myc-CpIAP. Alternatively, cells were co-transfected with 0.35 μg pcDNA3-caspase-9-Flag and 2.1 μg of either SfIAP or CpIAP. […] In some cases, lysates were prepared from transfected cells, normalized for total protein content, and analyzed by SDS-PAGE/immunoblotting as described (Deveraux, Q., et al., (1997) supra; Deveraux, Q. L., et al. (1998) supra; Roy, N. et al. (1997) supra; Takahashi, R., et al., (1998), supra.).
Baculoviral IAPs have been reported to protect mammalian cells from some apoptotic stimuli (Hawkins, C. J. et al., (1996) Proc. Natl. Acad. Sci. USA 93, 13786-13790; Hawkins, C. et al., (1998) Cell Death and Differentiation 5, 569-576; Uren, A. G. et al., (1996) Proc. Natl. Acad. Sci. USA 93, 4974-4978). Tests were performed to determine whether SfIAP is also capable of functioning as an apoptosis suppressor in a mammalian cell context. […]
Plasmids encoding various IAPs were co-transfected with Bax or Fas into 293 cells and % apoptosis was determined 24-36 hours later.

[3] = tested on: caspase-9-induced caspase activation and apoptosis in 293T cells; assay: Caspase-9 overexpression in 293T cells: caspase activity and apoptosis; format: cell-based, human; details: 24-36 hours after transfection
Protocol: as §2
To test this hypothesis, 293T cells were transfected with plasmids encoding pro-caspase-9 alone or in combination with SfIAP and CpIAP. Caspase activity and apoptosis were then assayed 24-36 hours later.

[4] = tested on: caspase-3 and similar DEVD-cleaving proteases in cell extracts treated with cyto c; assay: Cell-free caspase activation induced by cyto c in HEK 293 cytosolic extracts; format: biochemical, human; details: for suppression of pro-caspase-3 processing (immunoblot): cyto c-treated extracts; for effect on hydrolysis of Ac-DEVD-AFC (caspase activity): recombinant protein, cell extracts treated with cyto c
Protocol: as §1
Cytosolic extracts were prepared as described (Deveraux, Q., Takahashi, R., Salvesen, G. S. & Reed, J. C. (1997) Nature 388, 300-303) using human embryonic kidney (HEK) 293 cells. Cells were washed with ice-cold buffer A (20 mM HEPES pH 7.5, 10 mM KCl, 1.5 mM MgCl2, 1 mM EDTA and 1 mM DTT), suspended in 1 volume of buffer A, incubated on ice for 20 mins, and then disrupted by 15 passages through a 26-gauge needle. Cell extracts were purified by centrifugation at 15000 g for 12 mins and supernatants were stored at −80 ° C. For initiating caspase activation, either 100 nM of purified recombinant caspase-8 or 1 μM horse heart cytochrome c (Sigma) together with 1 mM dATP was added to extracts (Deveraux, Q. L., et al., (1998) EMBO J. 17, 2215-2223).
To further explore the mechanisms by which SfIAP and CpIAP inhibit mammalian apoptosis, a cell-free system in which exogenously added active caspase-8 or cyto c induces activation of caspase-3 and similar proteases, as measured by hydrolysis of Ac-DEVD-AFC (Quan, L. T. et al., (1995) J. Biol. Chem. 270, 10377-10379) was used. Caspase-8 and cyto c trigger the same apoptosis pathways in extracts which are activated by Fas and Bax in intact cells.

Molecule | inhibition of recombinant active caspase-9 [1] | molar-excess relative to caspase-9 which produced ~50% inhibition of protease activity [1] [fold] | suppression of Fas-induced apoptosis [2] | inhibition of caspase-9-induced apoptosis [3] | suppression of activation of downstream DEVD-cleaving caspases induced by overexpression of caspase-9 [3] | suppression of pro-caspase-3 processing (immunoblot) [4] | effect on hydrolysis of Ac-DEVD-AFC (caspase activity) [4]
SfIAP: cellular IAP cloned from Spodoptera frugiperda, protein of 377 amino acids (SEQ ID NO:3); GST-fusion when recombinant (protein, listed as Spodoptera frugiperda, GST fusion when recombinant; fall armyworm inhibitor of apoptosis protein (SfIAP)) MWSCSLPCWNTKKSGLQMDITKVASNGSSSTLTLFKSGSLEAKIRPLAPLMLPTPSYDSNAGSPSLSPSTPCSSSSFSIDKTDNHDTFGFSADTVDMRKEDERMKTFEKWPVSFLSGEQLARNGFYYLGRRDEARCAFCKVEIMRWVEGDDPAKDHQRWAPQCPFVRKLNGTAAADTGSSGQDECGARAAPSGTSPPRMAGPVHPRYASEAARLRSFKDWPRCMRQKPEELAEAGFFYTGQGDKTKCFYCDGGLKDWENHDVPWEQHARWFDRCAYVQLVKGREYVQKVISEACEVSASEAERDVAPARTAEPSPPAEAPENSVDDSKLCKICYAEERNVCFVPCGHVVACAKCALAADKCPMCRRTFQNAVRLYFS | inhibited recombinant active caspase-9 in a concentration-dependent manner; also recorded: direct inhibitors of mammalian caspase-9 | 8 | ineffective at suppressing Fas-induced apoptosis | inhibited caspase-9-induced apoptosis | markedly suppressed activation of downstream DEVD-cleaving caspases | suppressed the processing of pro-caspase-3 in cyto c-treated | completely blocked the hydrolysis of Ac-DEVD-AFC; also recorded: able to inhibit cyto c-induced activation of DEVD-cleaving caspases
CpIAP: baculoviral (CpGV) inhibitor of apoptosis protein; complete ORF expressed myc-tagged or as GST-fusion (protein, left off: a dimerising Fc or GST, complete ORF expressed myc-tagged or as GST-fusion) MSDLRLEEVRLNTFEKWPVSFLSPETMAKNGFYYLGRSDEVRCAFCKVEIMRWKEGEDPAADHKKWAPQCPFVKGIDVCGSIVTTNNIQNTTTHDTIIGPAHPKYAHEAARVKSFHNWPRCMKQRPEQMADAGFFYTGYGDNTKCFYCDGGLKDWEPEDVPWEQHVRWFDRCAYVQLVKGRDYVQKVITEACVLPGENTTVSTAAPVSEPIPETKIEKEPQVEDSKLCKICYVEECIVCFVPCGHVVACAKCALSVDKCPMCRKIVTSVLKVYFS | inhibited recombinant active caspase-9 in a concentration-dependent manner; also recorded: direct inhibitors of mammalian caspase-9 | 12 | ineffective at suppressing Fas-induced apoptosis | inhibited caspase-9-induced apoptosis | markedly suppressed activation of downstream DEVD-cleaving caspases | suppressed the processing of pro-caspase-3 in cyto c-treated | completely blocked the hydrolysis of Ac-DEVD-AFC
